From publication doi:10.1101/386532 (bioRxiv, 2018) come the findings set out here.

To fix the notation:
B2: IST1(1–189) (IST1NTD) (domain or fragment, human, UniProt P53990 1-189, looked up)
chain: MLGSGFKAERLRVNLRLVINRLKLLEKKKTELAQKARKEIADYLAAGKDERARIRVEHIIREDYLVEAMEILELYCDLLLARFGLIQSMKELDSGLAESVSTLIWAAPRLQSEVAELKIVADQLCAKYSKEYGKLCRTNQIGTVNDRLMHKLSVEAPPKILVERYLIEIAKNYNVPYEPDSVVMAEAPP

The data set “cryo-EM structure” deals with the molecule itself. The data set can be described thus: cryo-EM structure.
Data set [1] concerns the molecule itself. The data set can be described thus: negative stain EM of filament assembly.
The target in the next data set is T1, GST-CHMP1B(4–199) (WT) (human, UniProt Q7LBR1 4-199).
T1 sequence (looked up): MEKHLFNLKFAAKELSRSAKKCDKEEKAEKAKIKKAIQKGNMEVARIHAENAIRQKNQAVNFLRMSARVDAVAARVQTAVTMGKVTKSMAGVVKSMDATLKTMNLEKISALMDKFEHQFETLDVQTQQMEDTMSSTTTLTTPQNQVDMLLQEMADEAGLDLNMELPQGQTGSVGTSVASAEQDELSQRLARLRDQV
The data set can be described thus: SPR. (Surface plasmon resonance follows binding to a sensor surface in real time, without labels.)

The data set “IST1(1–189) (IST1NTD)” has as its target B2. The data set can be described thus: SPR.

B1: CHMP1B(4–199) for structure determination (from His-SUMO fusion) (natural protein, human, UniProt Q7LBR1 4-199, looked up)
chain: MEKHLFNLKFAAKELSRSAKKCDKEEKAEKAKIKKAIQKGNMEVARIHAENAIRQKNQAVNFLRMSARVDAVAARVQTAVTMGKVTKSMAGVVKSMDATLKTMNLEKISALMDKFEHQFETLDVQTQQMEDTMSSTTTLTTPQNQVDMLLQEMADEAGLDLNMELPQGQTGSVGTSVASAEQDELSQRLARLRDQV
With B1, the binding result in “cryo-EM structure” is recorded as “binds”.
As for B2, the binding result in data set [1] is recorded as “binds”. Binding with GST-CHMP1B(4–199) (WT) was characterised by a dissociation constant (Kd) of 92 µM.
With DELSQRLARLRDQV (peptide, UniProt Q7LBR1 186-199, looked up) [GST-CHMP1Bα6 (CHMP1B MIM1 element alone, residues 186–199)], binding with IST1(1–189) (IST1NTD) was put at a Kd of 91 µM.
